T1: human IL-36R (on cells) (human, UniProt Q9HB29 20-575)
T1 sequence (looked up): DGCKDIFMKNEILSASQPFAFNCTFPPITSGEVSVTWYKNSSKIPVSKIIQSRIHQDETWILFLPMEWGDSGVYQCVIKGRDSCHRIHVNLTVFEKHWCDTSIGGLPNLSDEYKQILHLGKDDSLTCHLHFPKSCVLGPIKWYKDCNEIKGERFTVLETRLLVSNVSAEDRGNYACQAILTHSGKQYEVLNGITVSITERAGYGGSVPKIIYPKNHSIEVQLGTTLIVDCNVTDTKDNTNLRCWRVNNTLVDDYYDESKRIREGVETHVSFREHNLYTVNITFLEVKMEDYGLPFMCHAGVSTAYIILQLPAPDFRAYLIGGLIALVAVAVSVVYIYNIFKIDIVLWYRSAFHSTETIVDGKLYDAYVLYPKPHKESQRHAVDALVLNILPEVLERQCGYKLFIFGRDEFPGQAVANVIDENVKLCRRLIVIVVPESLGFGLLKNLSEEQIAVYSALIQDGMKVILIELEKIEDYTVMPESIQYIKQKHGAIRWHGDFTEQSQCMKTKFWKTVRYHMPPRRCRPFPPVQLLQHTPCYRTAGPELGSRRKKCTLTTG

T2: extracellular domain of human IL-36R (human, UniProt Q9HB29 20-335)
T2 construct: extracellular domain; Immobilised on the chip in the BIACORE assay; soluble and bead-coupled in the KINEXA assay; also called soluble human IL-36R extracellular domain
T2 sequence (looked up): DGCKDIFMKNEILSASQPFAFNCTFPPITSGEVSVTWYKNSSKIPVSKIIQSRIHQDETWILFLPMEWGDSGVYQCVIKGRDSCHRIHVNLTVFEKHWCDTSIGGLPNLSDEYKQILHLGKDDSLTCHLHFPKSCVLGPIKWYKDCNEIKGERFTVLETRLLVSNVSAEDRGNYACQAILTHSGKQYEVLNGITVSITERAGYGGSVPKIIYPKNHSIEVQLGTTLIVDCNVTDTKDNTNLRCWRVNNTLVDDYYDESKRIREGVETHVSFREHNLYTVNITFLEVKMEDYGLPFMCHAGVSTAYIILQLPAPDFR

B1: Hzd 5D3 (APE6155) (antibody, V domains shown)
VH: QVQLVQSGAEVKKPGASVKVSCKASGYTFTNYWMNWVRQAPRQGLEWMGMFHPTGDVTRLNQKFKDRVTMTRDTSTSTVYMELSSLRSEDTAVYYCARTTSMIIGGFAYWGQGTLVTVSS
VL: DIVMTQTPLSLSVTPGQPASISCRSSKSLLHRNAITYFYWYLHKPGQPPQLLIYQMSNLASGVPDRFSGSGSGTDFTLKISRVEAEDVGVYYCAQNLELPLTFGGGTKVEIK
notes: also called APE6917; APE06155
B2: Hzd 18D4 (APE7247) (antibody, V domains shown)
VH: DVQFQESGPGLVKPSQTLSLTCTVTGYSITADFAWNWIRQPPGKGLEWIGYISYSGDTNYNPSLKSRVTITRDTSKNQFSLKLSSVTAADTAVYFCAIRGPYSFTYWGQGTLVTVSS
VL: DIQMTQSPSSLSASVGDRVTITCRASQWINNYLNWYQQKPGKAPKLLIYYTSMLHSGVPSRFSPSGSGNDYTFTISSLQPEDIATYYCQQGHTLPWTFGGGTKVEIKR
notes: also called APE6903; APE07247
B3: Humanized (HzD) 1D9 (APE5281) (antibody, V domains shown)
VH: QVQLMQSGAEVKKPGASVKVSCKASGFTFTSYDINWVRQAPGQRLEWMGWIYPGDSSTKYNEKFKGRVTITADKSANTAYMELASLRSEDTAVYFCTRSFYTMDYWGQGTTVTVSS
VL: DIVMTQSPLSLPVTPGEPASISCRSSKSLLHSNANTYLYWFLQKPGQSPQLLISRMSNLASGVPDRFSGSGSGTDFTLKISRVEAEDVGVYYCMQHLEYPFTFGQGTKLEIK
notes: also called 1D9 Humanized

Key:
[1] = target: cynomolgus monkey IL-36R variant 1 (on cells) (cynomolgus monkey); test: cell-based or functional assay
human IL-36R (on cells) [2] = target: T1, human IL-36R (on cells); test: cell-based or functional assay
human IL-36R (on cells) [3] = target: T1, human IL-36R (on cells); test: cell-based or functional assay; remark: listed apart in the source
human IL-36R (on cells) [4] = target: T1, human IL-36R (on cells); test: cell-based or functional assay; remark: listed apart in the source
[5] = target: cynomolgus IL-36R (on cells, allelic variant not stated) (cynomolgus monkey), A0A2K5; test: cell-based or functional assay
[6] = target: cynomolgus monkey IL-36R variant 2 (on cells) (cynomolgus monkey), A0A2K5; test: cell-based or functional assay
[7] = target: cynomolgus monkey IL-36R variant 3 (on cells) (cynomolgus monkey), A0A2K5; test: cell-based or functional assay
human IL-36R (on cells) [8] = target: T1, human IL-36R (on cells); test: flow cytometry on CHO-K cells co-expressing human IL-36R and human IL-1RAcP
Experimental: The binding of antibodies to CHO-K cells stably co-expressing human IL-36R and human IL-1RAcP was examined. Cynomolgus IL-36R allelic variation was examined by Sanger sequencing, and four distinct allelic variants were identified within cynomolgus monkey populations. The binding of antibodies to CHO-K cells stably co-expressing cynomolgus monkey IL-36R variant 1 and cynomolgus monkey IL-1RAcP was also examined for APE6155 and APE7247. Each antibody was incubated with CHO cells harvested using accutase, washed, and seeded at 500,000 cells per well. Cells were incubated with antibodies at concentrations ranging from 33 nM-16 pM for 30 minutes at 4° C., and washed three times with FACS staining buffer. Cells were spun and aspirated, and then the incubated with 100 μl paraformaldehyde for 10 minutes at room temperature. Cells were again washed, aspirated, and stained with 100 μL of anti-human IgG Alexa 647 for 20 minutes at 4° C. Cells were resuspended in 100 μL FACS analysis buffer before analysis on the FACS Array (BD Biosciences).

[9] = target: T2, extracellular domain of human IL-36R; test: KINEXA 3000 solution-phase equilibrium, soluble human IL-36R extracellular domain
Experimental: The binding affinities of various purified antibodies comprising immunoglobulin heavy chain (HC) and light chain (LC) polypeptides described herein also were evaluated using a KINEXA® 3000 assay (Sapidyne Instruments, Boise, Id.) assays. KINEXA® technology measures the amount of unbound/free antibody molecule in solution phase after incubation with varying concentrations of antigen. Measuring binding events in the solution phase with micro beads for maximized surface area avoids mass transport limitations and mobility effects inherent to methods that measure binding to a solid phase. For each experiment, 50 μg of soluble human or cyno IL-36R extracellular domain was amine-coupled to 50 mg of UltraLink Biosupport beads (Thermo Fisher Scientific, Waltham, Mass.). […] Antibody-antigen solution was then flowed over antigen-coupled beads at a rate of 0.25 mL/min. Free antibody captured by beads was detected using ALEXA FLUOR™ 647-conjugated AffiniPure Donkey Anti-Human IgG (H+L) (Jackson ImmunoResearch, West Grove, Pa.) (500 ng/ml). The KD and/or ABC (active binding concentration) of antibody was obtained from non-linear regression analysis using a one-site homogeneous binding model in the KINEXA™ Pro Software.

[10] = target: T2, extracellular domain of human IL-36R; test: BIACORE T200 SPR, human IL-36R extracellular domain immobilised, antibody injected
Experimental: The binding affinities of various purified antibodies comprising immunoglobulin heavy chain (HC) and light chain (LC) polypeptides described herein were evaluated using BIACORE™ T200 […] assays. BIACORE™ T200 evaluation software (GE Healthcare, Buckinghamshire, United Kingdom) is used to determine antibody-antigen binding kinetics and affinity. The extracellular domain of human IL-36R was immobilized at approximately 100 RU onto a CMS sensor chip (GE Healthcare, Waukesha, Wis.) using amine coupling chemistry. HBS-EP+ buffer (0.01 M HEPES, 0.15 M NaCl, 3 mM EDTA, 0.05% Polysorbate, pH 7.6) (Teknova, Hollister, Calif.) was used to reconstitute each antibody at various concentrations Each antibody concentration was then injected for two to three minutes over immobilized antigen at a flow rate of 30 μL/min, and allowed to dissociate for 15 minutes. The surface was regenerated with 60 μL of 3 M MgCl₂ after each cycle. Association and dissociation kinetic constants (kon and koff) were fit globally using a 1:1 binding model with mass transport with the BIACORE™ T200 evaluation software in order to report on- and off-rates (ka and kd, respectively), as well as affinities (KD).

[11] = target: cynomolgus monkey IL-36R variant 1 (on cells) (cynomolgus monkey); test: flow cytometry on CHO-K cells co-expressing cynomolgus IL-36R variant 1 and cynomolgus IL-1RAcP
[12] = target: cyno IL-36R (BIACORE antigen of Table 4) (cynomolgus monkey); test: BIACORE T200 SPR, cyno IL-36R

cynomolgus IL-36R (on cells, allelic variant not stated) (cynomolgus monkey), A0A2K5, sequence (chain, as listed by the source mutant): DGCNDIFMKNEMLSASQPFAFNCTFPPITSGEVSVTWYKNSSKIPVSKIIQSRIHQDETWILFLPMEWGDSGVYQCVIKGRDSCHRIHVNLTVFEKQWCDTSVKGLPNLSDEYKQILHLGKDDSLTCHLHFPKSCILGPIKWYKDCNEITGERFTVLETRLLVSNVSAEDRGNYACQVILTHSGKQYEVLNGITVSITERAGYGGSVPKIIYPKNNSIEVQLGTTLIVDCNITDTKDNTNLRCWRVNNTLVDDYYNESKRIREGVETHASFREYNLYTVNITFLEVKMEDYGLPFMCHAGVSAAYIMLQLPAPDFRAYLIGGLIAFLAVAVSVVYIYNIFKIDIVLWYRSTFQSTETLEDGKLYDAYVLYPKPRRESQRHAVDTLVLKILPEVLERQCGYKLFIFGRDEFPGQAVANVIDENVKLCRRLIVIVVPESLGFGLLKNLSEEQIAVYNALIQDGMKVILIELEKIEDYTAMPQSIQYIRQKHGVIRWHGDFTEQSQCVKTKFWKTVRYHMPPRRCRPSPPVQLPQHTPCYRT
cynomolgus monkey IL-36R variant 2 (on cells) (cynomolgus monkey), A0A2K5, sequence (chain, as listed by the source mutant): as above
cynomolgus monkey IL-36R variant 3 (on cells) (cynomolgus monkey), A0A2K5, sequence (chain, as listed by the source mutant): as above

Row | Binder | EC50 (nM), IL-8 luciferase reporter assay, 300 ng/ml IL-36γ (Cyno IL-36R variant 1) [1] | EC50 (nM), HEK human IL-36R IL-8 luciferase reporter assay, 20 ng/ml hIL-36β (human IL-36R (on cells) [2]) | EC50 (nM), HEK human IL-36R IL-8 luciferase reporter assay, 50 ng/ml hIL-36α (human IL-36R (on cells) [2]) | EC50 (nM), HEK human IL-36R IL-8 luciferase reporter assay, 200 ng/ml hIL-36γ (human IL-36R (on cells) [2]) | EC50 (nM), IL-8 secretion by primary human keratinocytes, 1 ng/ml human IL-36β (human IL-36R (on cells) [3]) | EC50 (nM), IL-8 secretion by primary human keratinocytes, 10 ng/ml human IL-36α (human IL-36R (on cells) [3]) | EC50 (nM), IL-8 secretion by primary human keratinocytes, 100 ng/ml human IL-36γ (human IL-36R (on cells) [3]) | EC50 (nM), IL-8 secretion by primary human monocytes, human IL-36α (human IL-36R (on cells) [4]) | EC50 (nM), IL-8 secretion by primary human monocytes, human IL-36β (human IL-36R (on cells) [4]) | EC50 (nM), IL-8 secretion by primary human monocytes, human IL-36γ (human IL-36R (on cells) [4]) | EC50 (human IL-36R (on cells) [8]) | Kd [9] | Kd [10] | EC50 [11] | Kd [12] | further results
1 | B1 | 0.042 nM | 0.22 nM | 0.23 nM | 0.4 nM | 0.227 nM | 0.125 nM | 0.093 nM | 0.088 nM | 0.117 nM | 0.078 nM | 1.5 nM | 0.169 nM | 0.071 nM | 2.4 nM | – | EC50 (nM), HEK cyno IL-36R IL-8 luciferase reporter assay, 300 ng/ml cIL-36γ [5]: 0.31 nM; EC50 (nM), HEK cyno IL-36R IL-8 luciferase reporter assay, 2 µg/ml cIL-36α [5]: 0.08 nM; EC50 (nM), HEK cyno IL-36R IL-8 luciferase reporter assay, 10 µg/ml cIL-36β [5]: 0.13 nM; EC50 (nM), IL-8 secretion by primary cynomolgus PBMCs, 10 ng/ml cyno IL-36β [5]: 1.5 nM; EC50 (nM), IL-8 secretion by primary cynomolgus PBMCs, 50 ng/ml cyno IL-36α [5]: 1.2 nM; EC50 (nM), IL-8 secretion by primary cynomolgus PBMCs, 250 ng/ml cyno IL-36γ [5]: 0.89 nM; EC50 (nM), IL-8 secretion by primary cynomolgus keratinocytes, 10 ng/ml cyno IL-36β [5]: 1.4 nM; EC50 (nM), IL-8 secretion by primary cynomolgus keratinocytes, 50 ng/ml cyno IL-36α [5]: 1.1 nM; EC50 (nM), IL-8 secretion by primary cynomolgus keratinocytes, 250 ng/ml cyno IL-36γ [5]: 1.1 nM; EC50 (nM), IL-8 luciferase reporter assay, 300 ng/ml IL-36γ (Cyno IL-36R variant 2) [6]: 0.043 nM; EC50 (nM), IL-8 luciferase reporter assay, 300 ng/ml IL-36γ (Cyno IL-36R variant 3) [7]: 0.21 nM
2 | B2 | 0.079 nM | 0.114 nM | 0.066 nM | 0.104 nM | 0.336 nM | 0.142 nM | 0.074 nM | – | – | – | 2.8 nM | 0.1 nM | < 0.02 nM | 3.3 nM | < 0.02 nM | –
3 | B3 | – | – | 0.17 nM | 0.12 nM | 0.053 nM | 0.047 nM | 0.04 nM | 0.035 nM | 0.033 nM | 0.027 nM | – | 0.008 nM | 0.077 nM | – | 0.126 nM | –
